From US11884740 (TG THERAPEUTICS, dated 2024)

Assays:
Assay in all cases: cell-based or functional assay
[1] = target: T1, FcγIIIA Receptor on the effector cells (human, UniProt P08637 17-254)
[2] = target: C1q Receptor in the complement system (rabbit serum as the source of complement) (rabbit)
[3] = target: T1, FcγIIIA Receptor on the effector cells; remark: listed apart in the source

T1 sequence (P08637 17-254): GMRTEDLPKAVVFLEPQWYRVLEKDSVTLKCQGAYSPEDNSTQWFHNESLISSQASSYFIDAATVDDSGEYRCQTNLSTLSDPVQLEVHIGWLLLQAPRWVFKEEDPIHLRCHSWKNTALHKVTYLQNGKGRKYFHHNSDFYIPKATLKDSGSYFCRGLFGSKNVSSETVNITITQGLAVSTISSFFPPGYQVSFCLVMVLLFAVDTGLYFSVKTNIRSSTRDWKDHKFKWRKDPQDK

EC50 of ADCC assay Using Primary NK Cells (Raji targets, LDH release) [1]: 49000 ng/mL
EC50 (CDC, Jeko-1 cells, rabbit complement) [2]: 670 ng/mL
EC50 (ADCC, Raji targets, KILR CD16a effector cells) [3]: 0.00242 ng/mL
B1: TG-1101 (TG Therapeutics, Inc.) (antibody, human IgG1, kappa)
heavy: not shown
light: QIVLSQSPAILSASPGEKVTMTCRASSSVSYMHWYQQKPGSSPKPWIYATSNLASGVPARFSGSGSGTSYSFTISRVEAEDAATYYCQQWTFNPPTFGGGTRLEIKRTVAAPSVFIFPPSDEQLKSGTASVVCLLNNFYPREAKVQWKVDNALQSGNSQESVTEQDSKDSTYSLSSTLTLSKADYEKHKVYACEVTHQGLSSPVTKSFNRGEC
